These results are taken from the DeepSol protein solubility set.

This data set can be described thus: soluble on expression in E. coli; label from the status in PepcDB or PDB records.
For the sequence “MSTTKKGDTYNEAWVKDTNGFDILMGQFAHNIENIWGFKEVVIAGPKDYVKYTDQYQTRSHINFDDGTITIETIAGTEPAAHLRRAIIKTLLMGDDPSSVDLYSDVDDITISKEPFLYGQVVDNTGQPIRWEGRASNFADYLLKNRLKSRSNGLRIIYSVTINMVPNHLDKRAHKYLGMVRQASRKYGVDESLILAIMQTESSFNPYAVSRSDALGLMQVVQHTAGKDVFRSQGKSGTPSRSFLFDPASNIDTGTAYLAMLNNVYLGGIDNPTSRRYAVITAYNGGAGSVLRVFSNDKIQAANIINTMTPGDVYQTLTTRHPSAESRRYLYKVNTAQKSYRRRLEHHHHHH”, the “soluble on expression in E. coli” value was “soluble”.

Consider “MHRVEETRRIAPEEGNPVLISQIKDASGNITVAVREEGGQARAVKGAASVYALAMEAANGGKSLADVVSAHGLGDAVDLDKAYAEGRFLPPITHPDPAHLHLTGTGLTHLGSAATRDSMHKKTTEAAEESLTDSMKMFRMGLENGKPKAGEKGVQPEWFYKGNGHVAAAPGAALTSPSFALDGGEEPEMAGIYVISDKGEAVRIGFAVSNEFSDHVTERVNYLYLAHSKLRPASFGPEIRVGAAPSDIRGTSRIRRGDKVIFEKPFVSGEDNMSHTFANLEYHHFKYGLFRAPGDVHVHMFGTATLSFAEGIKPEAGDVFEIEAAGFGLPLKNPLAVDSEEEIVVRQI”, for which the “soluble on expression in E. coli” value is reported as “not soluble”.

Turning to “MHNKIVRIASSALTGGKLLEKLKPLTRWEVQWDPNKTKCLGITREVTFKDYETTWAFLTRVSMRSHLWGHHPLIHTSYTWVKLELHTHDIDPKDGAHSQLSDIDVRMAKRIDSYIDEMTT”, the “soluble on expression in E. coli” value is reported as “not soluble”.

As for “GSLYNDGNRDQRNFGRNQRNNNSNRYRNSRFNSRPRTRSREDDDEVHFDKTTFSKLIHVPKEDNSKEVTLDSLLEEGVLDKEIHKAITRMEFPGLTPVQQKTIKPILSSEDHDVIARAKTGTGKTFAFLIPIFQHLINTKFDSQYMVKAVIVAPTRDLALQIEAEVKKIHDMNYGLKKYACVSLVGGTDFRAAMNKMNKLRPNIVIATPGRLIDVLEKYSNKFFRFVDYKVLDEADRLLEIGFRDDLETISGILNEKNSKSADNIKTLLFSATLDDKVQKLANNIMNKKECLFLDTVDKNEPEAHERIDQSVVISEKFANSIFAAVEHIKKQIKERDSNYKAIIFAPTVKFTSFLCSILKNEFKKDLPILEFHGKITQNKRTSLVKRFKKDESGILVCTDVGARGMDFPNVHEVLQIGVPSELANYIHRIGRTARSGKEGSSVLFICKDELPFVRELEDAKNIVIAKQEKYEPSEEIKSEVLEAVTEEPEDISDIVISLISSYRSCIKEYRFSERRILPEIASTYGVLLNDPQLKIPVSRRFLDKLGLSRSPIGKAMFEIRDY”, the “soluble on expression in E. coli” value is reported as “soluble”.

For “MSYTAHEAQAALAPQFDAYSKAIEGSDWDTVATFYHPNGVIVQKGKEAFYGKDAIKAELLKFSEATGRSTSSFSNQKYEGAGDYLIITADFSSETEKAGTVKGKFVQIWKKEGDRHLIYHDEFEVNP”, the “soluble on expression in E. coli” value is “not soluble”.

On to “MSLELLSKLETKIQATLETIELLKMELEEEKQKTSTLSEQNNQLIEQNQQLQQELTSWNEKVTGLVGLLNSEI”, for which the “soluble on expression in E. coli” value is recorded as “soluble”.

In the case of “MSLRASTVKQHAFGLLIPELGQTEIFEPICQGMVAAQEAHNHVLIWGRSLAGSETTEADAKDVCARLISNRVSGVFFAPIEANPQKDAINRIISTMLSDAKIPIVLLDRDIVDYPQRSKFDVVGIDNRRAGCVATQHLIDAGCRRIGFIGRPHLAPSCVARCNGYRETVSNSSIPLAPTFAERLDPSDPILVGKVMDRHKPDGIVCSNDRTAALLMRTFATLKIAVPDQVRLVAFDDVKYASLVTVPLTTIHQPCDQLGAAAIQAMVQRIESPDMPPRDILVDFHLVVRESCGARMAREGHHHHHH”, the “soluble on expression in E. coli” value was “soluble”.

With “SLTKKVTIGSYIKFSDSCKRDGLANYSEQGRFWDVHRSQADDVQKIYNQELEFQRLAQRIGNCSGILRFSQIDDDETGKKKLKLRLQEAHFCRVRHCPVCQWRRSLMWQARFYSALPAIIKEYPKARFLFLTLTVKNCHIEDLSDTLRIMNSGWQRLKDRKEFKSVLGWIRSTEVTKGKDGSAHPHFHILLMVPPSWFTHSYVKKSRWAELWAYCARLDYSPVVDIRTVKNCVPEASSGLTEGLKAAVAETLKYSVKPSDMIEGNNWFLQMTKQVHRKRFIASGGVLKNILRESQETNEDLIFADNLNEISDRSRIAFNWRQSEKCYRRFEQGD”, the “soluble on expression in E. coli” value was “soluble”.

As to “MGSSHHHHHHSSGLVPRGSHMILTLTLNPSVDISYPLTALKLDDVNRVQEVSKTAGGKGLNVTRVLAQVGEPVLASGFIGGELGQFIAKKLDHADIKHAFYNIKGETRNCIAILHEGQQTEILEQGPEIDNQEAAGFIKHFEQLLEKVEAVAISGSLPKGLNQDYYAQIIERCQNKGVPVILDCSGATLQTVLENPYKPTVIKPNISELYQLLNQPLDESLESLKQAVSQPLFEGIEWIIVSLGAQGAFAKHNHTFYRVNIPTISVLNPVGSGDSTVAGITSAILNHENDHDLLKKANTLGMLNAQEAQTGYVNLNNYDDLFNQIEVLEV”, the “soluble on expression in E. coli” value is “soluble”.

For the sequence “MGSDKIHHHHHHMNKNEIANLKMQGFILQNDGKHFALRIKTDAGCMDSEKIDKLSEISKKYGRNYISFTVRLCVEIPWINYEDIPKIKEELKNLSLISGGTGNTVRPLVACKGTVCTHGLIDSQKICNELDSLFFGKKLPHKFKIGISGCPNNCAKAQLNDIGIIGQRIPKINEENCNGCTLCLKSCSVDAITIVDKKAVIDYEKCVNCGKCGKSCKRKCISLKDGVLISVGGKFGKKYKIGENIGIYDAPNLEKIVSEIMDYFKENADSHERFGDTIDRTGISSLKEKLKDY”, the “soluble on expression in E. coli” value is “not soluble”.

Turning to “MGSDKIHHHHHHMRAKELQDWFPEARISDQPVEKEGYLTLPLASQQWILLEEAGLSEREKQLVALLTQQEQARSLNPWYSYLVEGKGQAPQVFKKIQLVYCHLSYFQQENLASWLDMMRTLFPNCQTVLQVGAQDYVFVLQQDKYTSVRDILSDTIEAVEYDFGLRLSIMLGQVWSQTGHQALSDLIKAERDLFKTWWRQGHQGVHTFSQLYLWSMGERLVDLKPIKECLHQMILDQDQIQEIILSLWENSAVLTKTAQQLYLHRNSLQYKIDKWEELTGLQLKELTDLTLCYQLILGSLSTIVGL”, the “soluble on expression in E. coli” value is recorded as “not soluble”.

For the sequence “MHNNENVSGISAYLLGLIWGDGGLYKLKYKGNRSEYRVVITQKSENLIKQFIAPRMQFLIDELNVKSKIQIVKGDTRYELRVSSKKLYYYFANMLERIRLFNGNRFLAYLAGIVDGDGSIIAQIKPNQSYKFKHQLSLTFQVTQKTERRWFLDKLVDEIGVGYVRDRGSVSDYILSEIKPLHNFLTQLQPFLNFKQKQANLVLKIIEQLPSAKESPDKFLEVCTWVDQIAALNDSKTRKTTSETVRAVLDSLSEKKKSSP”, the “soluble on expression in E. coli” value is “soluble”.

As for “MGSDKIHHHHHHMTKNARQTALDVLNDIFGNDAYANISLDRNLRDSELSTVDKAFVTALVYGVVSKKDLLEWHITPFLKKEPKPWAKMLLLLTVYQILFMDKVPTSAAVDEAVKIAKRRDGQATANFINAVLRNFMRSEHRNEEPKDWETKYSMPKLLLDKMVRQFGGKRTGEILESLEKPSHVSLRKIDPTVEISGTRASLLTESALIADSGNFAMTEEFQSGRITIQDETSQLVAPQLDLEGTEEVLDACAAPGGKSTHMAQYLTIGHITALDLYDHKLDLINQNAERQHVADKITTQKADATMIFEEFGSDKFDRILVDAPCSGIGLIRRKPDIRYRKESSDFVDLQKIQLEILNSASKSLKKSGIMVYSTCTIFDEENFDVVRQFLESHPNFEQVEISSDKADMIKEGCIFITPEMYHTDGFFIAKFKKIGE”, the “soluble on expression in E. coli” value is “not soluble”.

As for “STGSKQRSQNRSKTPKNQEALRMANVAENSSSDQRQACKKHELYVSFRDLGWQDWIIAPEGYAAYYCEGECAFPLNSYMNATNHAIVQTLVHFINPETVPKPCCAPTQLNAISVLYFDDSSNVILKKYRNMVVRACGCH”, the “soluble on expression in E. coli” value is reported as “soluble”.

As for “MSLTTGRISELLSPNYADLNDPRPIFDWMQVIRKRAVVYVGLDALSDTEVAAAVGNSMFSDLVSVAGHIYKHGVDDGLPGSLAGGKVRINLHADEFNELIGDEFIPMVNKAGGAGVQVTAYTQTMSDIEAKIGSRAKAGQIIGNFNNLFMLRVRETATAELLTNQLPKVQIYTSTPASGANDAINNKKAAFTSSSHDQVQMTSVPMLEPAHIVGLPKGQAFALLEGGNLWKIRMPLPAVDPDEVMPKSLQELAAGMRKGQAANSEGHHHHHH”, the “soluble on expression in E. coli” value is “not soluble”.

Consider “ASMTGGQQMGRGSASLPACPEESPLLVGPMLIEFNMPVDLELVAKQNPNVKMGGRYAPRDCVSPHKVAIIIPFRNRQEHLKYWLYYLHPVLQRQQLDYGIYVINQAGDTIFNRAKLLNVGFQEALKDYDYTCFVFSDVDLIPMNDHNAYRCFSQPRHISVAMDKFGFSLPYVQYFGGVSALSKQQFLTINGFPNNYWGWGGEDDDIFNRLVFRGMSISRPNAVVGTTRHIRHSRDKKNEPNPQRFDRIAHTKETMLSDGLNSLTYQVLDVQRYPLYTQITVDIGTPS”, for which the “soluble on expression in E. coli” value is on record as “soluble”.

In the case of “MGSDKIHHHHHHMDWEDAPLPYKLYRNVPIIPLSLEIPLSLPNSSTTPTLNEIGHYLWCSFGLTQLCQLNSEKILFRRSIPSGGALYPNELYIYLKIDDYPDGIYHYDAAHHRLILIREGNFDSYLTEALGNRCNLQSCFGAAFVSTMFWKNFFKYNNFSYRLQGLDSGVLIGQLLECAKQFGYTNGVYFQFLDRAINHLLGLSEGEESVYAVLPFSTEPQTNWFHNDYREIKTVTSHELLQQIPPLAHEHFVRSKHVNEYPMITKINEASMIESTAQFQTLAHEEHFQHHAHAVQLPKVERLSYDFLQLCRKRYSPDADFILTKWDAAELATLLQEASLSFPYYNDLDGQYVNENARVSLYGCFYNVKDIENGAYSYNSKTHSIQPLRYGDLRYPLQSSMTMDNVNLFQVPLCLHVVGKKDYYTNALGYRGYRIHQMEAGILVHKLVFAATAMGMAGHPLLSFDTNSCDQLYGIEAGNETSLIQIPVGAYRARNWLKGALRN”, the “soluble on expression in E. coli” value is “not soluble”.

For the sequence “MGSDKIHHHHHHMKLLSVVKIWDRGDHNAFTDLIRFDGKLYCAFREGSAHVSPDGALRILVSEDDGSSWKEAALIKLDEGDLRDARLLVWLGELYLFGARAIAGEPLQSLMWRSSDGCRWQAAEHCADTGYWLWRVIADNNEQSVSRAPALYGVAYRPGPDGDVRLYRAAPQGPLKGTDFIPLVAALNSEGYVNETGLEITDGIFTCLLRRDPVWDDRRNGLLGKAKAPFMDWQWLELDCRIGGPVVFRWCNRLLAIVRLYDEKVRTSLVEICETTGHVAEHLSLPSGGDTSYAGVVMEHSVKGDELKVSYYSSHEGKTAIYFAAIRLE”, the “soluble on expression in E. coli” value is on record as “not soluble”.

With “MGSSHHHHHHSSGLVPRGSVCMTEIATTSGARSVGLLSVGAYRPERVVTNDEICQHIDSSDEWIYTATGIKTRRFAADDESAASMATEACRRALSNAGLSAADIDGVIVTTNTHFLQTPPAAPMVAASLGAKGILGFDLSAGCAGFGYALGAAADMIRGGGAATMLVVGTEKLSPTIDMYDAGNCFIFADGAAAVVVGETPFQGIGPTVAGSDGEQADAIRQDIDWITFAQNPSGPRPFVRLEGPAVFRWAAFKMGDVGRRAMDAAGVRPDQIDVFVPHQANSRINELLVKNLQLRPDAVVANDIEHTGNTSAASIPLAMAELLTTGAAKPGDLALLIGYGAGLSYAAQVVRMPKG”, the “soluble on expression in E. coli” value is “soluble”.

For the sequence “DIQMTQSPSSLSASLGERVSLTCRASQDIGSKLYWLQQEPDGTFKRLIYATSSLDSGVPKRFSGSRSGSDYSLTISSLESEDFVDYYCLQYASSPYTFGGGTKLAIKRADAAPTVSIFPPSSEQLTSGGASVVCFLNNFYPKDINVKWKIDGSERQNGVLNSWTDQDSKDSTYSMSSTLTLTKDEYERHNSYTCEATHKTSTSPIVKSFNRNEC”, the “soluble on expression in E. coli” value is “soluble”.
